Experimental data taken from publication PMC9482650, “Quantitative fragmentomics allow affinity mapping of interactomes” (Nature Communications, 2022).

T1: MPDZ_12, O75970
T1 sequence (O75970 1857-1958, limits assumed, looked up): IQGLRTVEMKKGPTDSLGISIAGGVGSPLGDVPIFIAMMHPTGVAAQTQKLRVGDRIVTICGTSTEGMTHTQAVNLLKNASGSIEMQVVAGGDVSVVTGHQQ

T2: GRIP1_7, Q9Y3R0
T2 sequence (Q9Y3R0 999-1096, limits assumed, looked up): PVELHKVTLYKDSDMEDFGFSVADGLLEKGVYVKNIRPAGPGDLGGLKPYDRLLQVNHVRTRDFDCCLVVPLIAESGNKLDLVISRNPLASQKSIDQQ

T3: MPP2, Q14168
T3 sequence (Q14168 180-250, limits assumed, looked up): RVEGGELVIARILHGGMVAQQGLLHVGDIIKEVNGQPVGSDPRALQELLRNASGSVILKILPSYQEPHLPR

T4: NHERF3_3, Q5T2W1
T4 sequence (Q5T2W1 238-333, limits assumed, looked up): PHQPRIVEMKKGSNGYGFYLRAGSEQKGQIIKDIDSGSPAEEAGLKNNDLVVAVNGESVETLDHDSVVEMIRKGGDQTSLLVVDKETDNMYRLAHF

T5: FRMPD1, Q5SYB0
T5 sequence (Q5SYB0 52-145, limits assumed, looked up): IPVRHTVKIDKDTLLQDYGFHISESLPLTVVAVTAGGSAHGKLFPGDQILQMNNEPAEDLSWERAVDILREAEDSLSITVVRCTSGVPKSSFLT

T6: DVL3, Q92997
T6 sequence (Q92997 244-331, limits assumed, looked up): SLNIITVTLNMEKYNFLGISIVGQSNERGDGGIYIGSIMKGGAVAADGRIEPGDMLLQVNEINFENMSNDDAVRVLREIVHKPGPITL

T7: HTRA4, P83105
T7 sequence (P83105 378-476, limits assumed, looked up): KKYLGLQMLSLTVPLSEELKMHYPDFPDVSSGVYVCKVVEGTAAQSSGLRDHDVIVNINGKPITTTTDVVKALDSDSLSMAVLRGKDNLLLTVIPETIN

T8: APBA2_1, Q99767
T8 sequence (Q99767 563-664, limits assumed, looked up): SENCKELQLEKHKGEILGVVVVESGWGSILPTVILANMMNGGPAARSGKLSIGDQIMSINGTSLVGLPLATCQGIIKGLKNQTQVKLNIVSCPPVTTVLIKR

T9: LNX2_2, Q8N448
T9 sequence (Q8N448 334-432, limits assumed, looked up): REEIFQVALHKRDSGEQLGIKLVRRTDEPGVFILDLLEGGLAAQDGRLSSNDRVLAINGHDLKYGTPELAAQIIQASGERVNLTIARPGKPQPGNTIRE

T10: APBA2_2, Q99767
T10 sequence (Q99767 654-744, limits assumed, looked up): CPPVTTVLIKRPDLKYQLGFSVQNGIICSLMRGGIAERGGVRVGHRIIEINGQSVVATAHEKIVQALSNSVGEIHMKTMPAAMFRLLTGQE

T11: TIAM2, Q8IVF5
T11 sequence (Q8IVF5 885-986, limits assumed, looked up): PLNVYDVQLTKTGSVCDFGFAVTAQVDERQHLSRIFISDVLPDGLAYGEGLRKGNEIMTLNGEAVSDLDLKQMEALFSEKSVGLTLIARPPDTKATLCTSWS

T12: CARD11, Q9BXL7
T12 sequence (Q9BXL7 662-765, limits assumed, looked up): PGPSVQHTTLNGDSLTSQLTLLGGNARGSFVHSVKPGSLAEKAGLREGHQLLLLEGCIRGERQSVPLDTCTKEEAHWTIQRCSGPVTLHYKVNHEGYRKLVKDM

T13: MPP7, Q5T2T1
T13 sequence (Q5T2T1 134-230, limits assumed, looked up): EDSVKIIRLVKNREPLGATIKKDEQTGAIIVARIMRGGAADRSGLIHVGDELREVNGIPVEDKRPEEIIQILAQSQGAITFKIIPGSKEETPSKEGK

T14: PDZD7_3, Q9H5P4
T14 sequence (Q9H5P4 857-944, limits assumed, looked up): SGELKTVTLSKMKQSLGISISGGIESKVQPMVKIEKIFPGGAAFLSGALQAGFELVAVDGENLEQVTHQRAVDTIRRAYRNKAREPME

T15: SNTG1, Q9NSN8
T15 sequence (Q9NSN8 52-150, limits assumed, looked up): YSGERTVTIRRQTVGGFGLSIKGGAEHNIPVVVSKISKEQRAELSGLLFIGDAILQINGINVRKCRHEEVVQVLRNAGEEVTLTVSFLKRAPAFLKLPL

B1: GAS2L2, Q8NHY3 (peptide)
chain: PLPPEEESWV
B2: FCHSD2, O94868 (peptide)
chain: KIEDVEITLV
B3: NPSR1, Q6W5P4 (peptide)
chain: MQILSKPEFI
B4: FAM71C, Q8NEG0 (peptide)
chain: STYCDYTIEI

Each binder was assayed against AHNAK1, Q09666 (assay: holdup assay). Settings: plain residues with an end cap or a label only (N-terminal biotin on a linker: ado-ado).
Sequence of AHNAK1, Q09666 (Q09666 4-100): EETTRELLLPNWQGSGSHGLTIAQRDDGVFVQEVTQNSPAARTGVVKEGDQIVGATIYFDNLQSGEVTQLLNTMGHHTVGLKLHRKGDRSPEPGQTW
Design: key: below the threshold = too weak to quantify, mostly under pKd 3.1 to 4

pKd	Binder
below the threshold	B1
below the threshold	B2
below the threshold	B3
below the threshold	B4

Each binder was assayed against SCRIB_1, Q14160 (assay: holdup assay). Settings: plain residues with an end cap or a label only (N-terminal biotin on a linker: ado-ado).
Sequence of SCRIB_1, Q14160 (Q14160 718-814): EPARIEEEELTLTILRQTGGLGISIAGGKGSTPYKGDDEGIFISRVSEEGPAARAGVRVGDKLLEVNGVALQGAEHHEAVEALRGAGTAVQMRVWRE
Design: key: below the threshold = too weak to quantify, mostly under pKd 3.1 to 4

pKd	Binder
4.21	B1
3.8	B2
below the threshold	B3
below the threshold	B4

The binders below were run against T1, MPDZ_12, O75970 (assay: holdup assay). Settings: plain residues with an end cap or a label only (N-terminal biotin on a linker: ado-ado).
Design: key: below the threshold = too weak to quantify, mostly under pKd 3.1 to 4

pKd	Binder
4.36	B1
below the threshold	B2
3.56	B3
below the threshold	B4

Each binder was assayed against T2, GRIP1_7, Q9Y3R0 (assay: holdup assay). Settings: plain residues with an end cap or a label only (N-terminal biotin on a linker: ado-ado).
Design: key: below the threshold = too weak to quantify, mostly under pKd 3.1 to 4

pKd	Binder
4.46	B1
below the threshold	B2
below the threshold	B3
below the threshold	B4

These binders were tested against LIMK2, P53671 (assay: holdup assay). Settings: plain residues with an end cap or a label only (N-terminal biotin on a linker: ado-ado).
Sequence of LIMK2, P53671 (P53671 143-248): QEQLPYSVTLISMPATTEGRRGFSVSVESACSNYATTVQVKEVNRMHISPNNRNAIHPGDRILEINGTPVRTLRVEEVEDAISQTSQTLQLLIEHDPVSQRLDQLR
Design: key: below the threshold = too weak to quantify, mostly under pKd 3.1 to 4

pKd	Binder
below the threshold	B1
below the threshold	B2
below the threshold	B3
below the threshold	B4

These binders were tested against T3, MPP2, Q14168 (assay: holdup assay). Settings: plain residues with an end cap or a label only (N-terminal biotin on a linker: ado-ado).
Design: key: below the threshold = too weak to quantify, mostly under pKd 3.1 to 4

pKd	Binder
below the threshold	B1
below the threshold	B2
below the threshold	B3
below the threshold	B4

Each binder was assayed against T4, NHERF3_3, Q5T2W1 (assay: holdup assay). Settings: plain residues with an end cap or a label only (N-terminal biotin on a linker: ado-ado).
Design: key: below the threshold = too weak to quantify, mostly under pKd 3.1 to 4

pKd	Binder
below the threshold	B1
below the threshold	B2
below the threshold	B3
below the threshold	B4

Each binder was assayed against T5, FRMPD1, Q5SYB0 (assay: holdup assay). Settings: plain residues with an end cap or a label only (N-terminal biotin on a linker: ado-ado).
Design: key: below the threshold = too weak to quantify, mostly under pKd 3.1 to 4

pKd	Binder
below the threshold	B1
below the threshold	B2
below the threshold	B3
below the threshold	B4

The binders below were run against T6, DVL3, Q92997 (assay: holdup assay). Settings: plain residues with an end cap or a label only (N-terminal biotin on a linker: ado-ado).
Design: key: below the threshold = too weak to quantify, mostly under pKd 3.1 to 4

pKd	Binder
4.01	B1
below the threshold	B2
3.61	B3
4.01	B4

What follows are binders tested against T7, HTRA4, P83105 (assay: holdup assay). Settings: plain residues with an end cap or a label only (N-terminal biotin on a linker: ado-ado).
Design: key: below the threshold = too weak to quantify, mostly under pKd 3.1 to 4

pKd	Binder
3.59	B1
4.54	B2
4.38	B3
4.96	B4

These binders were tested against GRIP2_3, Q9C0E4 (assay: holdup assay). Settings: plain residues with an end cap or a label only (N-terminal biotin on a linker: ado-ado).
Sequence of GRIP2_3, Q9C0E4 (Q9C0E4 238-339): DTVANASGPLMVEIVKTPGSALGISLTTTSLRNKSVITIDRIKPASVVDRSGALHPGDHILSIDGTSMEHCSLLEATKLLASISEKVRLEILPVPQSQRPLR
Design: key: below the threshold = too weak to quantify, mostly under pKd 3.1 to 4

pKd	Binder
below the threshold	B1
below the threshold	B2
below the threshold	B3
below the threshold	B4

These binders were tested against MAST2, Q6P0Q8 (assay: holdup assay). Settings: plain residues with an end cap or a label only (N-terminal biotin on a linker: ado-ado).
Sequence of MAST2, Q6P0Q8 (Q6P0Q8 1099-1202): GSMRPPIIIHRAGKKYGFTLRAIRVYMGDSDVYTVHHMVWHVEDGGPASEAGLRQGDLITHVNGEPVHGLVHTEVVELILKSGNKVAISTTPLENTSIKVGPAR
Design: key: below the threshold = too weak to quantify, mostly under pKd 3.1 to 4

pKd	Binder
5.12	B1
5.63	B2
below the threshold	B3
5.12	B4

These binders were tested against Inadl_3, Q8NI35 (assay: holdup assay). Settings: plain residues with an end cap or a label only (N-terminal biotin on a linker: ado-ado).
Sequence of Inadl_3, Q8NI35 (Q8NI35 359-469): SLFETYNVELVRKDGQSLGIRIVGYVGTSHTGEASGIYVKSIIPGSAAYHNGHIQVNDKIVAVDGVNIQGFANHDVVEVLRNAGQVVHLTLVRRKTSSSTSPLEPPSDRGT
Design: key: below the threshold = too weak to quantify, mostly under pKd 3.1 to 4

pKd	Binder
3.78	B1
4.43	B2
below the threshold	B3
5	B4

These binders were tested against T8, APBA2_1, Q99767 (assay: holdup assay). Settings: plain residues with an end cap or a label only (N-terminal biotin on a linker: ado-ado).
Design: key: below the threshold = too weak to quantify, mostly under pKd 3.1 to 4

pKd	Binder
below the threshold	B1
below the threshold	B2
3.74	B3
below the threshold	B4

These binders were tested against T9, LNX2_2, Q8N448 (assay: holdup assay). Settings: plain residues with an end cap or a label only (N-terminal biotin on a linker: ado-ado).
Design: key: below the threshold = too weak to quantify, mostly under pKd 3.1 to 4

pKd	Binder
5.07	B1
5.6	B2
below the threshold	B3
4.96	B4

Each binder was assayed against T10, APBA2_2, Q99767 (assay: holdup assay). Settings: plain residues with an end cap or a label only (N-terminal biotin on a linker: ado-ado).
Design: key: below the threshold = too weak to quantify, mostly under pKd 3.1 to 4

pKd	Binder
below the threshold	B1
3.51	B2
below the threshold	B3
below the threshold	B4

The binders below were run against TJP1_2, Q07157 (assay: holdup assay). Settings: plain residues with an end cap or a label only (N-terminal biotin on a linker: ado-ado).
Sequence of TJP1_2, Q07157 (Q07157 181-274): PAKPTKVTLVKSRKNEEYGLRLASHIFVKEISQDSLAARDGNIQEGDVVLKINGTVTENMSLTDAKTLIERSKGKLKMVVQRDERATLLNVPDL
Design: key: below the threshold = too weak to quantify, mostly under pKd 3.1 to 4

pKd	Binder
below the threshold	B1
below the threshold	B2
below the threshold	B3
3.65	B4

What follows are binders tested against ARHGEF12, Q9NZN5-2 (assay: holdup assay). Settings: plain residues with an end cap or a label only (N-terminal biotin on a linker: ado-ado).
Sequence of ARHGEF12, Q9NZN5-2 (Q9NZN5 other isoform, or with tags, fused parts or gaps): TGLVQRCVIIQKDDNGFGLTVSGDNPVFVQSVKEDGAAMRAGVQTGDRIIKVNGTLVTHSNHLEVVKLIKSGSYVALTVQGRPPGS
Design: key: below the threshold = too weak to quantify, mostly under pKd 3.1 to 4

pKd	Binder
below the threshold	B1
3.85	B2
below the threshold	B3
3.76	B4

Each binder was assayed against T11, TIAM2, Q8IVF5 (assay: holdup assay). Settings: plain residues with an end cap or a label only (N-terminal biotin on a linker: ado-ado).
Design: key: below the threshold = too weak to quantify, mostly under pKd 3.1 to 4

pKd	Binder
4.17	B1
below the threshold	B2
4.05	B3
4.15	B4

What follows are binders tested against T12, CARD11, Q9BXL7 (assay: holdup assay). Settings: plain residues with an end cap or a label only (N-terminal biotin on a linker: ado-ado).
Design: key: below the threshold = too weak to quantify, mostly under pKd 3.1 to 4

pKd	Binder
below the threshold	B1
below the threshold	B2
below the threshold	B3
below the threshold	B4

These binders were tested against T13, MPP7, Q5T2T1 (assay: holdup assay). Settings: plain residues with an end cap or a label only (N-terminal biotin on a linker: ado-ado).
Design: key: below the threshold = too weak to quantify, mostly under pKd 3.1 to 4

pKd	Binder
3.57	B1
below the threshold	B2
below the threshold	B3
4.6	B4

These binders were tested against T14, PDZD7_3, Q9H5P4 (assay: holdup assay). Settings: plain residues with an end cap or a label only (N-terminal biotin on a linker: ado-ado).
Design: key: below the threshold = too weak to quantify, mostly under pKd 3.1 to 4

pKd	Binder
4.32	B1
5.46	B2
below the threshold	B3
3.55	B4

What follows are binders tested against T15, SNTG1, Q9NSN8 (assay: holdup assay). Settings: plain residues with an end cap or a label only (N-terminal biotin on a linker: ado-ado).
Design: key: below the threshold = too weak to quantify, mostly under pKd 3.1 to 4

pKd	Binder
5.6	B1
4.14	B2
below the threshold	B3
below the threshold	B4
